Experimental findings from patent US20200345845A1 (RUBIUS THERAPEUTICS, published 2020) are described below.

The target of test [1] is CD20 (human) (UniProt P11836). The experiment in a line: flow cytometry, RCT binding to Toledo cells.
For test [2], the target named is CD20 (human) (UniProt P11836). The experiment in a line: flow cytometry, RCT binding to Granta-519 cells. (In general: Flow cytometry measures light scatter and fluorescence of single cells or particles in a stream.)
Test [3] addresses CD20 (human) (UniProt P11836). The experiment in a line: cell-based or functional assay.
In test [4] the target is CD20 (human) (UniProt P11836). The test is described as follows: flow cytometry, RCT binding to Z138 cells.
The target in test [5] is CD20 (human) (UniProt P11836). The test is described as follows: flow cytometry, RCT binding to SU-DHL4 cells.
Test [6] addresses PD-1 (UniProt Q15116). The experiment in a line: cell-based or functional assay.
Test [7] addresses T1, CD20 (human, UniProt P11836 1-297).
T1 construct: whole, on cells; Endogenous CD20 on lymphoma cell lines; also called CD20 on CD20-expressing cell lines (Raji, Ramos, Z138, Granta-519, Toledo, SU-DHL4, DOHH-2)
T1 sequence (looked up): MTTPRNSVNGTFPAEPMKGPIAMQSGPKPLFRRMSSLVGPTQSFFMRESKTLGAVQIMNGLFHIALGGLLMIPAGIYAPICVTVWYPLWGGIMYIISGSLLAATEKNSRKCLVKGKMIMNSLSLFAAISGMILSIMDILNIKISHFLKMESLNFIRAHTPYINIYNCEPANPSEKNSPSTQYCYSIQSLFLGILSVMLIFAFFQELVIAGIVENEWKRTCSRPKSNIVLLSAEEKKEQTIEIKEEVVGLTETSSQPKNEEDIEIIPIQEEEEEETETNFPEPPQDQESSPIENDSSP
The test is described as follows: immunofluorescence of co-culture with Ramos cells.

PD-1, sequence (Q15116 25-288 limits assumed): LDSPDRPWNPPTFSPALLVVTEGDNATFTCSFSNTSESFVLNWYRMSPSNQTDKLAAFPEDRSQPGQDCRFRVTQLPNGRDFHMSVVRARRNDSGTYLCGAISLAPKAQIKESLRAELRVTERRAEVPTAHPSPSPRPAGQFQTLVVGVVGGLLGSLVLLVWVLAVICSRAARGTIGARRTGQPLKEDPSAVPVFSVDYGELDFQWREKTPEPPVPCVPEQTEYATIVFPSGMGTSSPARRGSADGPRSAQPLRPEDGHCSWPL

Take “RCT-antiCD20: enucleated erythroid cells expressing on their surface a fusion protein of a rituximab CD20 scFv domain, an HA epitope tag and full-length GPA”: the Percent cells bound came to 37.1% in test [1], 76% in test [2], 43.7% in test [4] and 91.3% in test [5]. In test [3], this molecule came in with an apoptosis of Ramos cells after 48 hours of co-culture of 32%.
“RCT-antiPD1: enucleated erythroid cells expressing a fusion protein of a pembrolizumab-based anti-PD-1 scFv domain, an epitope tag (HA or Flag) and full-length GPA” gave an interferon-gamma secretion of PBMC in an antigen recall assay in test [6] of 3 to 4 fold.

B1: RCT-HA-GPA: control enucleated erythroid cells expressing on their surface the HA epitope tag fused to the N terminus of full-length GPA (other, not shown: small tags and cut ends)
chain: LSTTEVAMHTSTSSSVTKSYISSQTNDTHKRDTYAATPRAHEVSEISVRTVYPPEEETGERVQLAHHFSEPEITLIIFGVMAGVIGTILLISYGIRRLIKKSPSDVKPLPSPDTDVPLSSVEIENPETSDQ
notes: also called HA-GPA control RCT; control RCT-HA-GPA
In the case of B1, the binding result in test [7] is recorded as “no binding”.
